Test results from US20230059489A1.
Substitutions are numbered along the chain they refer to.

B1: P5F7 (scFv format) (scFv, from a related filing, part only)
scFv: EVQLLESGGGLVQPGGSLRLSCAASGFTFSSYAMNWVRQAPGKGLEWVSSISGGGRSTYYADSVKGRFTISRDNSKNTLYLQMNSLRAEDTAVYYCARDLSPSDVGWGYGFDIWGQGTLVTVSSGGGGSGGGGSGGGGSEIVLTQSPATLSLSPGERATLSCRASQSVSSNLAWYQQKPGQAPRLLIYDTFTRATGIPARFSGSGSGTDFTLTISRLEPEDFAVYYCQQYGSSPPTFGQGTRLEIK
B2: P4H11 (scFv format) (scFv, part only; not given: linker, domain order, tags, V domains shown, not shown: another chain or arm of the molecule; small tags and cut ends)
VH: EVQLLESGGGLVQPGGSLRLSCAASGFTFSSYAMNWVRQAPGKGLEWVSSISGGGRSTYYADSVKGRFTISRDNSKNTLYLQMNSLRAEDTAVYYCARDLSPSDVGWGYGFDIWGQGTLVTVSS
VL: EIVLTQSPGTLSLSPGERATLSCRASQSVSNTYLAWYQQKPGQAPRLLIYDTSSRATGIPDRFSGSGSGTDFTLTISRLEPEDFAVYYCQQYGSSLTFGQGTKVEIK
B3: P4C7 (scFv format) (scFv, part only; not given: linker, domain order, tags, V domains shown, not shown: another chain or arm of the molecule; small tags and cut ends)
VH: QVQLVQSGAEVKKPGSSVKVSCKASGGTFSSYTISWVRQAPGQGLEWMGGIIPAFGIANYAQKFQGRVTITADKSTSTAYMELSSLRSEDTAVYYCAKGGSYSLDYFDIWGQGTLVTVSS
VL: B2 VL with S28Y, N31A, T32S, Y33L, D51G, T52A, S54T, G93A, S94R, L96S
B4: P5A3 (scFv format) (scFv, part only; not given: linker, domain order, tags, V domains shown, not shown: another chain or arm of the molecule; small tags and cut ends)
VH: QVQLVQSGAEVKKPGSSVKVSCKASGGTFSSYYIGWVRQAPGQGLEWMGGIIPWFGTANYAQKFQGRVTITADKSTNTAYMELSSLRSEDTAVYYCAADHHDSPSGYTSGGFDVWGQGTLVTVSS
VL: QSALTQPASVSGSPGQSITISCTGTSSDVGGYNYVSWYQQHPGKAPKLMIYEVSKRPSGVPDRFSGSKSGNTASLTVSGLQAEDEADYYCSSYAGSNTVVFGGGTKLTVL
B5: P9F1 (scFv format) (scFv, part only; not given: linker, domain order, tags, V domains shown, not shown: another chain or arm of the molecule; small tags and cut ends)
VH: EVQLLESGGGLVQPGGSLRLSCAASGFIFSSFAMSWVRQAPGKGLEWVSDISGSGASTYYADSVKGRFTISRDNSKNTLYLQMNSLRAEDTAVYYCASASGGSGSYWPYMDPWGQGTLVTVSS
VL: QSVLTQPPSASGTPGQRVTISCSGSGSNIGSNYVYWYQQLPGTAPKLLIYRNNQRPSGVPDRFSGSKSGTSASLAISGLRSEDEADYYCAAWDGSLSRPVFGTGTKLTVL
B6: P1B4 (scFv format) (scFv, part only; not given: linker, domain order, tags, V domains shown, not shown: another chain or arm of the molecule; small tags and cut ends)
VH: QVQLVQSGAEVKKPGSSVKVSCKASGGVFSRYALSWVRQAPGQGLEWMGGIIPMLGFANYAQKFQGRVTITADESTSTAYMELSSLRSEDTAVYYCATLDFGALDYWGQGTLVTVSS
VL: EIVLTQSPGTLSLSPGERATLSCRASQSVPNEQLAWYQQKPGQAPRLLIYDASSRATGIPDRFSGSGSGTDFTLTISRLEPEDFAVYYCQQYGSPPLTFGQGTKVEIK
B7: P7H3 (scFv format) (scFv, part only; not given: linker, domain order, tags, V domains shown, not shown: another chain or arm of the molecule; small tags and cut ends)
VH: EVQLLESGGGLVQPGGSLRLSCAASGFTFSSYAMHWVRQAPGKGLEWVSAISGSGGSTYYADSVKGRFTISRDNSKNTLYLQMNSLRAEDTAVYYCARGTRWWWGDAFDHWGQGTLVTVSS
VL: QSVLTQPPSVSVAPGKTARITCGGNNIGSKSVHWYQQKPGQAPVLVIYYDSDRPSGIPERFSGSNSGNTATLTISRVEAGDEADYYCQVWDSSTAWVFGGGTKLTVL
B8: P3E10 (scFv format) (scFv, part only; not given: linker, domain order, tags, V domains shown, not shown: another chain or arm of the molecule; small tags and cut ends)
VH: QVQLVQSGAEVKKPGSSVKVSCKASGGTFSSYAIQWVRQAPGQGLEWMGGIVGSWGLANYAQKFQGRVTITTDKSTSTAYMELSSLRSEDTAVYYCATSAFGELASWGQGTLVTVSS
VL: B6 VL with N31S, E32S, P95S
B9: P1A5 (scFv format) (scFv, part only; not given: linker, domain order, tags, V domains shown, not shown: another chain or arm of the molecule; small tags and cut ends)
VH: B6 VH
VL: EIVLTQSPGTLSLSPGERATLSCRASQAVDSSDLAWYQQKPGQAPRLLIYDAYTRPSGIPDRFSGSGSGTDFTLTISRLEPEDFAVYYCQQYGSSPLTFGGGTKLEIK

Biological target: human FLT3 (hFLT3) (human) (UniProt P36888)
Assay: SPR, Table 6, scFv format; set-up and antigen species not described

human FLT3 (hFLT3) (human), sequence (P36888 27-543 limits assumed): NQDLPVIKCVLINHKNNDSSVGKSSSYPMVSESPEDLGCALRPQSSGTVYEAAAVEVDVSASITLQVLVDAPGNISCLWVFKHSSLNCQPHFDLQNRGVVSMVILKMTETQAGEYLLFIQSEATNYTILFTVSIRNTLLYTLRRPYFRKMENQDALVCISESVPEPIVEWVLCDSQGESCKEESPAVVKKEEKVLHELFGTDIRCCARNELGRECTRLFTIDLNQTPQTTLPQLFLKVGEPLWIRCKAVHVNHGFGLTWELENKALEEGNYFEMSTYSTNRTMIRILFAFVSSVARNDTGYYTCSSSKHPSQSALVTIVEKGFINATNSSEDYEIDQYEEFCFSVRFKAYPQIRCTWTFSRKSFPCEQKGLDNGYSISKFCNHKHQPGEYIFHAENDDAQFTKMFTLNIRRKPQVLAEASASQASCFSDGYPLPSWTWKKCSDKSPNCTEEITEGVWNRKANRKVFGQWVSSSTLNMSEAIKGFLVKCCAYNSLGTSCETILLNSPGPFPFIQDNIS

Binder	Kd	koff	kon	t1/2
B1	1 nM	0.000197 s⁻¹	189000 M⁻¹ s⁻¹	59 min
B2	58.3 nM	0.00933 s⁻¹	160000 M⁻¹ s⁻¹	1 min
B3	13.6 nM	0.00164 s⁻¹	121000 M⁻¹ s⁻¹	7 min
B4	216 nM	0.0175 s⁻¹	81000 M⁻¹ s⁻¹	0.7 min
B5	126 nM	0.0286 s⁻¹	226000 M⁻¹ s⁻¹	0.4 min
B6	27.3 nM	0.00327 s⁻¹	120000 M⁻¹ s⁻¹	3.5 min
B7	9.1 nM	0.00187 s⁻¹	205000 M⁻¹ s⁻¹	6.2 min
B8	65.1 nM	0.0112 s⁻¹	172000 M⁻¹ s⁻¹	1 min
B9	1.1 nM	0.000292 s⁻¹	259000 M⁻¹ s⁻¹	40 min
